# Test results taken from patent publication US20240173426A1 (Regeneron, published 2024).
# T1: human FGFR3b expressed with a C-terminal myc-myc-hexahistidine tag (hFGFR3b.mmH) (human)
# T1 construct: monomeric; also called REGN3152; monomeric human FGFR3b
# T1 chain: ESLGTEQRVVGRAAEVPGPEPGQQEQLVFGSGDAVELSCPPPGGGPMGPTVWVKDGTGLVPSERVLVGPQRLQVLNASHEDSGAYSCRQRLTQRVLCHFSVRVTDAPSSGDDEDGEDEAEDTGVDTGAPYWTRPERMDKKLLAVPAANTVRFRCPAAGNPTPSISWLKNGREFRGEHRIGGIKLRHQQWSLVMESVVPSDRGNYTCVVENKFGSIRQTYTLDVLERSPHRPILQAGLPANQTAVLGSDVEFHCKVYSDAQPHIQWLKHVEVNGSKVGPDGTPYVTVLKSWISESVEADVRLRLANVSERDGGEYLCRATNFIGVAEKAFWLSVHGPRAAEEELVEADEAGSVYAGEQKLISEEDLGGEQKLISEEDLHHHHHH
# T2: murine FGFR3b expressed with a C-terminal myc-myc-hexahistidine tag (mFGFR3b.mmH) (mouse)
# T2 construct: monomeric; also called REGN3215; monomeric murine FGFR3b
# T2 chain: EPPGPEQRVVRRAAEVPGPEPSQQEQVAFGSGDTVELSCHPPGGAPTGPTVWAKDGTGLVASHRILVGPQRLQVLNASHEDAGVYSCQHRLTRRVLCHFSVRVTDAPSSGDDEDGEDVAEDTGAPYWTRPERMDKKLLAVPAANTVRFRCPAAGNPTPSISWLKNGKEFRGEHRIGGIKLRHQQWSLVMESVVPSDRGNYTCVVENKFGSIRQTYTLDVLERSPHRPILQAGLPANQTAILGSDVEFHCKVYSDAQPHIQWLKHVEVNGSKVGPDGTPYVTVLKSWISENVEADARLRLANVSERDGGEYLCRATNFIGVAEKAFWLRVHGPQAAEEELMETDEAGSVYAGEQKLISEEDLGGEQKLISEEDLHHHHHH
# T3: cynomolgus FGFR3b expressed with a C-terminal myc-myc-hexahistidine tag (mfFGFR3b.mmH) (cynomolgus)
# T3 construct: The name states R357G; also called REGN3521; mf FGFR3b ecto (R357G) (E23-G377;R357G).mmH
# T3 chain: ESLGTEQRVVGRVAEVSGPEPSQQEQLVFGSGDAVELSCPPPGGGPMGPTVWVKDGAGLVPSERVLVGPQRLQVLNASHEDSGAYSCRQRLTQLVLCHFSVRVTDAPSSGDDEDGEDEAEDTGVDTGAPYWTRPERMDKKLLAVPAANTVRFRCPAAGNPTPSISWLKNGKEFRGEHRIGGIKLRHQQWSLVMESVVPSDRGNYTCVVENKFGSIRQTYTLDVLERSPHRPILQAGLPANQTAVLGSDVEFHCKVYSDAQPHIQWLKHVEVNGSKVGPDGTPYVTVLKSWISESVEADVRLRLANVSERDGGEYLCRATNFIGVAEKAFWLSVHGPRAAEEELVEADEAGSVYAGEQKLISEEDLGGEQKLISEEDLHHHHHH
# T4: human FGFR3b expressed with a C-terminal murine Fc tag (hFGFR3b.mFc) (human)
# T4 construct: called dimeric; also called REGN3153; dimeric human FGFR3b
# T4 chain: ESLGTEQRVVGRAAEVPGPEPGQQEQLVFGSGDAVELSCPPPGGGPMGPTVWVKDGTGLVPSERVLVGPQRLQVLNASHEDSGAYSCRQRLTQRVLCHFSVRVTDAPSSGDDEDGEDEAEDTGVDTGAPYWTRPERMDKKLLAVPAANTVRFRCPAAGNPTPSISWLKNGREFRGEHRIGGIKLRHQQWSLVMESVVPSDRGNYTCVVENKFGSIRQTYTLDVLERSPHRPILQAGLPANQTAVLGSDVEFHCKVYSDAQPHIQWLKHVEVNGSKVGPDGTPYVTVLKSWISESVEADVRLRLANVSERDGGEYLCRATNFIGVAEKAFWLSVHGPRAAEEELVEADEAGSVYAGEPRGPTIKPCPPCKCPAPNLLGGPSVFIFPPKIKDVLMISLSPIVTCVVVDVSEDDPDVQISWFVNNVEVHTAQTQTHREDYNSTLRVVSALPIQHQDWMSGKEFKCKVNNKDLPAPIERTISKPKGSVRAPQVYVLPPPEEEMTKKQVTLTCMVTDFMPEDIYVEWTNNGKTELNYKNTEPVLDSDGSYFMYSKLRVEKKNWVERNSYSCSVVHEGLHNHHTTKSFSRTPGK
# Key:
# Assay in all cases: SPR (Biacore), captured mAb, 25 C
# [1] = molecular target: T1, human FGFR3b expressed with a …
# Procedure: (§1) The CM5 Biacore sensor surface was derivatized by amine coupling with a monoclonal mouse anti-human Fc monoclonal antibody (REGN2567). All Biacore binding studies were performed in a buffer composed of 0.01M HEPES pH 7.4, 0.15 M NaCl, 3 mM EDTA, 0.05% v/v Surfactant P20 (HBS-EP running buffer). […] Antibody-reagent association was monitored for 5 minutes while dissociation in HBS-EP running buffer was monitored for 10 minutes. At the end of each cycle, the anti-FGFR3 antibody capture surface was regenerated using a 10 sec injection of 20 mM phosphoric acid. All binding kinetics experiments were performed at 25° C.
# (§2) The specific SPR-Biacore sensorgrams were obtained by a double referencing procedure. The double referencing was performed by first subtracting the signal of each injection over a reference surface (anti-hFc) from the signal over the experimental surface (anti-hFc-captured anti-FGFR3 antibodies) thereby removing contributions from refractive index changes. In addition, running buffer injections were performed to allow subtraction of the signal changes resulting from the dissociation of captured antibodies from the coupled anti-hFc surface. Kinetic association (kₐ) and dissociation (kd) rate constants were determined by fitting the real-time sensorgrams to a 1:1 binding model using Scrubber v2.0c curve fitting software.
# [2] = molecular target: T2, murine FGFR3b expressed with a …
# Procedure: as §1, §2
# [3] = molecular target: T3, cynomolgus FGFR3b expressed with a …
# Procedure: as §1, §2
# [4] = molecular target: T4, human FGFR3b expressed with a …
# Procedure: as §1, §2
# [5] = molecular target: T5, human FGFR3c expressed with a C-terminal myc-myc-hexahistidine tag (hFGFR3c.mmH) (human, UniProt P22607 23-375)
# T5 construct: monomeric; also called REGN3155; monomeric human FGFR3c
# Procedure: as §1, §2
t½ [1] [min],t½ [2] [min],t½ [3] [min],t½ [4] [min],t½ [5] [min],koff [1] [s⁻¹],kon [1] [M⁻¹ s⁻¹],koff [5] [s⁻¹],kon [5] [M⁻¹ s⁻¹],Binder
72.6,5.8,85.2,–,–,–,–,–,–,"H4H30108P2 (antibody, human IgG4 S228P, kappa, V domains shown) VH: QVQLVQSGAEVKKPGASVKVSCKASGYTFNSYDVNWVRQATGQGLEWMGWMNPHSGNTGYAQKFQGRVTMTRDTSTSTSYMELSSLTSEDTAVYYCARGPFSLLSAEFFQHWGQGTLVTVSS VL: not shown"
132,–,118,≥ 1160,146,–,–,–,–,"H4H30061P (antibody, human IgG4 S228P, kappa, V domains shown) VH: EVQLVESGGGLAQPGGSLKLSCEASGFTFSDSAMHWVRQASGKGLEWVGRIRSKANSYATGYAASVKGRFTISRDDSKNMAFLEMNSLKTEDTAVYYCLRQTYGDPWGQGTLVTVSS VL: DVVMTQSPLSLSVTLGQPASISCRSSLSLVYSDGNNYLNWFQQRPGQSPRRLLYKVFNRDSGVPDRFSGSGSGTDFTLKISRVEAEDVGVYYCMQGTHWPWTFGQGTKVEIKR"
4.1,4.9,5.2,608,–,–,–,–,–,"H4H30089P2 (antibody, human IgG4 S228P, kappa, V domains shown) VH: EVQLVESGGGLVQPGGSLRLSCIVSGFIFSSYEMSWLRQAPGKGLEWISYISSSGRVIYYADSVKGRFTISRDSAKNSLYLEMNSLRAEDTAIYYCTRKWDSSGPFDFWGQGTLVTVSS VL: not shown"
18.2,2.4,14.8,≥ 1160,–,–,–,–,–,"H4H30066P (antibody, human IgG4 S228P, kappa, V domains shown) VH: QVQLVQSGAEVKKPGASVKVSCKVSGYTLTELSMHWVRQAPGKGLEWMGGFDPEDGEIIYAQKFQGRVTMTEDTSTDTAYMDLSSLTSEDTAVYYCATEKQQLVRKYYFYYGLAVWGQGTTVTVSS VL: not shown"
2.3,–,2.6,117,2.5,–,–,–,–,"H4H30095P2 (antibody, human IgG4 S228P, kappa, V domains shown) VH: QVQLVQSGVEVKKPGASVKVSCKASGYTFKFYGISWVRQAPGQGLEWMGWISVYNGKTKYAQKLQGRVTMTTDTSTSTAYMELRSLRSDDTAVYFCARDGDYESSGYPFDYWGQGTLVTVSS VL: not shown"
390,6.9,520,≥ 1160,–,–,–,–,–,"H4H30071P (antibody, human IgG4 S228P, kappa, V domains shown) VH: QVQLQQSGPGLVKPSQTLSLTCAISGDSVSRNSAAWNWIRQSPSSGLEWLGRTYYRSKWFYDYAISVKSRITVNPDTSKNQFSLHLNSVTPEDTAVYYCARGYGGYEDYFDYWGQGTLVTVSS VL: DIQMTQSPSSVSASVGDRVTITCRASQGISSWLAWYQQKPGKAPKLLIYGASSLQSGVPSRFSGSGSGTDFTLTISSLQPEDFATYFCQQGSSFPYTFGQGTKLEIKR"

# Further lines, the binder ahead of its results:
Binder,t½ [1] [min],t½ [2] [min],t½ [3] [min],t½ [4] [min],t½ [5] [min],koff [1] [s⁻¹],kon [1] [M⁻¹ s⁻¹],koff [5] [s⁻¹],kon [5] [M⁻¹ s⁻¹]
"H4H30105P2 (antibody, human IgG4 S228P, kappa, V domains shown) VH: EVQLVQSGAEVKKPGESLKISCKGSGYSFTSYWIAWVRQMPGKGLEWMGIIYPGDSDTRYSPSFQGQVTMSADKSIRIAYLQWSSLKASDTAMYYCARLDYSGSWFDYWGQGTLVTVSS VL: not shown",2.3,9.5,1.4,–,1.8,–,–,–,–
"H4H30045P (antibody, human IgG4 S228P, kappa, V domains shown) VH: QVQLVQSGAEVKKPGASVKVSCKTSGYRFVNYGFSWVRQAPGQGLEWMGWISPYNGNTNYIQNLQDRITMTTDTSTNTAYMELTNLRSDDTAVYYCATLTGVHFDYWGQGTLVTVSS VL: AIQMTQSPSSLSASVGDRVTITCRASQGIRNDLGWYQQKPGKAPNLLIFETSRLQSGVPSRFSGSGSGTDFTLTINSLQPEDFATYYCLQDYNYPWTFGQGTKVEIKR",1.9,–,1.3,71.8,1.5,–,–,–,–
"anti-FGFR3-hIgG1 comparator (REGN6331) (antibody, V domains shown, Human IgG1 comparator; also called COMP6331; anti-FGFR3 comparator antibody) VH: EVQLVESGGGLVQPGGSLRLSCAASGFTFTSTGISWVRQAPGKGLEWVGRIYPTSGSTNYADSVKGRFTISADTSKNTAYLQMNSLRAEDTAVYYCARTYGIYDLYVDYTEYVMDYWGQGTLVTVSS VL: DIQMTQSPSSLSASVGDRVTITCRASQDVDTSLAWYKQKPGKAPKLLIYSASFLYSGVPSRFSGSGSGTDFTLTISSLQPEDFATYYCQQSTGHPQTFGQGTKVEIKR",18.8,–,–,–,8.77,0.000616,883000,0.00132,544000
"H4H30102P2 (antibody, human IgG4 S228P, kappa, V domains shown) VH: EVQLVESGGDLVQPGGSLRLSCAASGFTFSSYEMNWVRQAPGKGLEWVSYISNSGSTIYYADSVKGRFTISRDNAETSLYLQMNSLRAEDTAVYYCAREGWGAYCAGDCYSGFDIWGQGTMVTVSS VL: not shown",–,–,50.2,–,–,–,–,–,–
"H4H30117P2 (antibody, human IgG4 S228P, kappa, V domains shown) VH: QVQLVQSGAEVKKPGSSVKVSCKASGDTFSNYVIGWVRQAPGQGLEWMGGIIPIFGTTNYAQQFQGRVTITTDESTSTAYMELSSLRSEDTAVYYCARDGNYGDYFDYWGQGTLVTVSS VL: not shown",1.8,–,1.3,87,1.6,–,–,–,–
"H4H30063P (antibody, human IgG4 S228P, kappa, V domains shown, Tested as whole antibody; also called anti-FGFR3b antibody H4H30063P) VH: QVQLQESGPGLVKPSETLSLTCTVSGDSINSYFWSWIRQLPGKELEWIGHIYSSGSTRYNPSLQSRVTISIDTSKNQFSLKLSSVTAADTAVYYCARGASAVDYWGQGTLVTVSS VL: EIVLTQSPGTLSLSPGERATLSCRTSQSISSGYLAWYQQKPGQAPRLLIYGASRRATGIPDRFSGSGSGTDFTLTISRLEPEDFVVYYCQQYGSSPYTFGQGTKLEIKR",302,416,275,≥ 1160,–,–,–,–,–
"H4H30076P (antibody, human IgG4 S228P, kappa, V domains shown) VH: EVQLVESGGGLVQPGGSLRLSCAASGFTVSSNYMSWVRQAPGKGLEWVSIIYSGGHTYYSDSVKGRFTISRHNSKNTLYLQMNSLRGGDTAVYYCARGYTSGWYGFDFWGQGTLVTVSS VL: DIQMTQSPSSVSASVGDRVTITCRASQGISTWLAWYQQKPGKAPKLLIYAASSLQSGVPSRFSGTGSGTDFTLTISSLQPEDFATYYCQQTNSFPWTFGQGTKVEIKR",263,320,350,≥ 1160,–,–,–,–,–
